From the supplement of paper PMC9876800

System: peptide library, one residue held at a place counted from the S/T acceptor
Experiment: relative phosphorylation of the sub-library (ratio to the mean residue at this position); higher = residue favoured
Summary of the method: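 Relative sub-library phosphorylation is the ratio of each sub-library's signal to the mean residue at that position. The signal came from phosphorimaging of spots on streptavidin membranes, quantified by densitometry, after purified recombinant kinases reacted with biotinylated degenerate peptide sub-libraries in 384-well plates. Reactions held 50 μM peptide and 50 μM ATP spiked with γ-32P-ATP for 90 min under kinase-specific conditions.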

Substance “MAPK9, construct: Full length, human (from UniProt P45984)” has a relative phosphorylation (A fixed, at +1) of 0.338, a relative phosphorylation (A fixed, at +2) of 0.988 and a relative phosphorylation (A fixed, at +3) of 1.43. For the same substance, the relative phosphorylation (A fixed, at +4) was 1.17, the relative phosphorylation (A fixed, at -1) was 1.16 and the relative phosphorylation (A fixed, at -2) was 2.09. For the same substance, the relative phosphorylation (A fixed, at -3) was 1.24, the relative phosphorylation (A fixed, at -4) was 1.17 and the relative phosphorylation (A fixed, at -5) was 1.14. For the same substance, the relative phosphorylation (D fixed, at +1) was 0.147, the relative phosphorylation (D fixed, at +2) was 0.96 and the relative phosphorylation (D fixed, at +3) was 1.38. The relative phosphorylation (D fixed, at +4) was 1.21, the relative phosphorylation (D fixed, at -1) was 0.686 and the relative phosphorylation (D fixed, at -2) was 0.686. The relative phosphorylation (D fixed, at -3) was 1.13, the relative phosphorylation (D fixed, at -4) was 1.19 and the relative phosphorylation (D fixed, at -5) was 0.957. For the same substance, the relative phosphorylation (E fixed, at +1) was 0.151, the relative phosphorylation (E fixed, at +2) was 0.694 and the relative phosphorylation (E fixed, at +3) was 1.34. It also gave a relative phosphorylation (E fixed, at +4) of 1.27, a relative phosphorylation (E fixed, at -1) of 0.862 and a relative phosphorylation (E fixed, at -2) of 0.379. The relative phosphorylation (E fixed, at -3) was 1.19, the relative phosphorylation (E fixed, at -4) was 1.09 and the relative phosphorylation (E fixed, at -5) was 0.869. For the same substance, the relative phosphorylation (F fixed, at +1) was 0.358, the relative phosphorylation (F fixed, at +2) was 0.75 and the relative phosphorylation (F fixed, at +3) was 0.781. It also gave a relative phosphorylation (F fixed, at +4) of 0.805, a relative phosphorylation (F fixed, at -1) of 0.68 and a relative phosphorylation (F fixed, at -2) of 0.717. For the same substance, the relative phosphorylation (F fixed, at -3) was 0.814, the relative phosphorylation (F fixed, at -4) was 0.965 and the relative phosphorylation (F fixed, at -5) was 0.946. The relative phosphorylation (G fixed, at +1) was 0.646, the relative phosphorylation (G fixed, at +2) was 1.33 and the relative phosphorylation (G fixed, at +3) was 1.53. For the same substance, the relative phosphorylation (G fixed, at +4) was 1.32, the relative phosphorylation (G fixed, at -1) was 1.28 and the relative phosphorylation (G fixed, at -2) was 0.653. For the same substance, the relative phosphorylation (G fixed, at -3) was 1.21, the relative phosphorylation (G fixed, at -4) was 1.14 and the relative phosphorylation (G fixed, at -5) was 1.15. It also gave a relative phosphorylation (H fixed, at +1) of 0.195, a relative phosphorylation (H fixed, at +2) of 0.997 and a relative phosphorylation (H fixed, at +3) of 0.985. It also gave a relative phosphorylation (H fixed, at +4) of 1.02, a relative phosphorylation (H fixed, at -1) of 1 and a relative phosphorylation (H fixed, at -2) of 0.494. For the same substance, the relative phosphorylation (H fixed, at -3) was 0.95, the relative phosphorylation (H fixed, at -4) was 0.878 and the relative phosphorylation (H fixed, at -5) was 0.924. It also gave a relative phosphorylation (I fixed, at +1) of 0.433, a relative phosphorylation (I fixed, at +2) of 1.24 and a relative phosphorylation (I fixed, at +3) of 0.638. The relative phosphorylation (I fixed, at +4) was 0.879, the relative phosphorylation (I fixed, at -1) was 0.695 and the relative phosphorylation (I fixed, at -2) was 1.28. It also gave a relative phosphorylation (I fixed, at -3) of 0.76, a relative phosphorylation (I fixed, at -4) of 0.861 and a relative phosphorylation (I fixed, at -5) of 0.801. It also gave a relative phosphorylation (K fixed, at +1) of 0.164, a relative phosphorylation (K fixed, at +2) of 0.632 and a relative phosphorylation (K fixed, at +3) of 0.648. It also gave a relative phosphorylation (K fixed, at +4) of 0.795, a relative phosphorylation (K fixed, at -1) of 1.09 and a relative phosphorylation (K fixed, at -2) of 0.545. It also gave a relative phosphorylation (K fixed, at -3) of 0.915, a relative phosphorylation (K fixed, at -4) of 1.08 and a relative phosphorylation (K fixed, at -5) of 1.34. It also gave a relative phosphorylation (L fixed, at +1) of 0.462, a relative phosphorylation (L fixed, at +2) of 1.18 and a relative phosphorylation (L fixed, at +3) of 0.879. It also gave a relative phosphorylation (L fixed, at +4) of 0.787, a relative phosphorylation (L fixed, at -1) of 1.37 and a relative phosphorylation (L fixed, at -2) of 2.05. It also gave a relative phosphorylation (L fixed, at -3) of 1.08, a relative phosphorylation (L fixed, at -4) of 1 and a relative phosphorylation (L fixed, at -5) of 0.923. For the same substance, the relative phosphorylation (M fixed, at +1) was 0.314, the relative phosphorylation (M fixed, at +2) was 1.75 and the relative phosphorylation (M fixed, at +3) was 0.959. The relative phosphorylation (M fixed, at +4) was 0.913, the relative phosphorylation (M fixed, at -1) was 1.4 and the relative phosphorylation (M fixed, at -2) was 1.28. For the same substance, the relative phosphorylation (M fixed, at -3) was 0.93, the relative phosphorylation (M fixed, at -4) was 1.04 and the relative phosphorylation (M fixed, at -5) was 0.801. For the same substance, the relative phosphorylation (N fixed, at +1) was 0.17, the relative phosphorylation (N fixed, at +2) was 1.07 and the relative phosphorylation (N fixed, at +3) was 0.973. The relative phosphorylation (N fixed, at +4) was 0.934, the relative phosphorylation (N fixed, at -1) was 0.854 and the relative phosphorylation (N fixed, at -2) was 0.494. The relative phosphorylation (N fixed, at -3) was 1.07, the relative phosphorylation (N fixed, at -4) was 0.886 and the relative phosphorylation (N fixed, at -5) was 0.94. It also gave a relative phosphorylation (P fixed, at +1) of 12.4, a relative phosphorylation (P fixed, at +2) of 0.721 and a relative phosphorylation (P fixed, at +3) of 0.886. For the same substance, the relative phosphorylation (P fixed, at +4) was 1.66, the relative phosphorylation (P fixed, at -1) was 1.28 and the relative phosphorylation (P fixed, at -2) was 2.58. The relative phosphorylation (P fixed, at -3) was 1.16, the relative phosphorylation (P fixed, at -4) was 1.24 and the relative phosphorylation (P fixed, at -5) was 1.38. The relative phosphorylation (Q fixed, at +1) was 0.193, the relative phosphorylation (Q fixed, at +2) was 1.06 and the relative phosphorylation (Q fixed, at +3) was 1.01. It also gave a relative phosphorylation (Q fixed, at +4) of 1.04, a relative phosphorylation (Q fixed, at -1) of 1.36 and a relative phosphorylation (Q fixed, at -2) of 0.741. For the same substance, the relative phosphorylation (Q fixed, at -3) was 1.07, the relative phosphorylation (Q fixed, at -4) was 1.06 and the relative phosphorylation (Q fixed, at -5) was 1.02. It also gave a relative phosphorylation (R fixed, at +1) of 0.187, a relative phosphorylation (R fixed, at +2) of 0.803 and a relative phosphorylation (R fixed, at +3) of 0.908. The relative phosphorylation (R fixed, at +4) was 0.802, the relative phosphorylation (R fixed, at -1) was 1.25 and the relative phosphorylation (R fixed, at -2) was 0.635. For the same substance, the relative phosphorylation (R fixed, at -3) was 1.09, the relative phosphorylation (R fixed, at -4) was 0.938 and the relative phosphorylation (R fixed, at -5) was 1.02. It also gave a relative phosphorylation (V fixed, at +1) of 0.339, a relative phosphorylation (V fixed, at +2) of 1.4 and a relative phosphorylation (V fixed, at +3) of 0.845. The relative phosphorylation (V fixed, at +4) was 0.869, the relative phosphorylation (V fixed, at -1) was 0.76 and the relative phosphorylation (V fixed, at -2) was 1.32. It also gave a relative phosphorylation (V fixed, at -3) of 0.768, a relative phosphorylation (V fixed, at -4) of 0.365 and a relative phosphorylation (V fixed, at -5) of 0.833. It also gave a relative phosphorylation (W fixed, at +1) of 0.303, a relative phosphorylation (W fixed, at +2) of 0.69 and a relative phosphorylation (W fixed, at +3) of 0.951. It also gave a relative phosphorylation (W fixed, at +4) of 0.817, a relative phosphorylation (W fixed, at -1) of 0.533 and a relative phosphorylation (W fixed, at -2) of 0.543. For the same substance, the relative phosphorylation (W fixed, at -3) was 0.729, the relative phosphorylation (W fixed, at -4) was 1.02 and the relative phosphorylation (W fixed, at -5) was 0.886. For the same substance, the relative phosphorylation (Y fixed, at +1) was 0.239, the relative phosphorylation (Y fixed, at +2) was 0.745 and the relative phosphorylation (Y fixed, at +3) was 0.859. It also gave a relative phosphorylation (Y fixed, at +4) of 0.712, a relative phosphorylation (Y fixed, at -1) of 0.743 and a relative phosphorylation (Y fixed, at -2) of 0.511. For the same substance, the relative phosphorylation (Y fixed, at -3) was 0.875, the relative phosphorylation (Y fixed, at -4) was 1.09 and the relative phosphorylation (Y fixed, at -5) was 1.07. It also gave a relative phosphorylation (pThr fixed, at +1) of 0.495, a relative phosphorylation (pThr fixed, at +2) of 2.23 and a relative phosphorylation (pThr fixed, at +3) of 1.06. For the same substance, the relative phosphorylation (pThr fixed, at +4) was 1.16, the relative phosphorylation (pThr fixed, at -1) was 0.432 and the relative phosphorylation (pThr fixed, at -2) was 0.933. The relative phosphorylation (pThr fixed, at -3) was 0.957, the relative phosphorylation (pThr fixed, at -4) was 0.975 and the relative phosphorylation (pThr fixed, at -5) was 0.996. It also gave a relative phosphorylation (pTyr fixed, at +1) of 0.347, a relative phosphorylation (pTyr fixed, at +2) of 0.987 and a relative phosphorylation (pTyr fixed, at +3) of 1.07. The relative phosphorylation (pTyr fixed, at +4) was 0.719, the relative phosphorylation (pTyr fixed, at -1) was 0.468 and the relative phosphorylation (pTyr fixed, at -2) was 0.429. For the same substance, the relative phosphorylation (pTyr fixed, at -3) was 0.778, the relative phosphorylation (pTyr fixed, at -4) was 0.808 and the relative phosphorylation (pTyr fixed, at -5) was 0.836.
